From article PMC12429063, “The BUB1 and BUBR1 paralogs scaffold the kinetochore fibrous corona” (Science Advances, 2025)

How the values were obtained:
[1] = target: T1, RZZS rings: mCherry-RZZ polymerized with farnesylated GFP-Spindly in the presence of MPS1 kinase domain (UniProt P50748 1-2209; Q9H900 1-591; O43264 1-779; Q96EA4 1-605, incubated with MPS1 kinase domain and ATP (the paper names T13 and S15 of ROD as the MPS1 sites) | farnesylated); assay: co-sedimentation; pelleting assay: polymerized RZZS incubated with preys 2 hours at 20°C, 40% glycerol cushion, 100,000g 45 min at 20°C; 50 mM Hepes pH 8, 100 mM NaCl, 2 mM MgCl2, 1 mM TCEP; settings: both partners purified
T1 construct: ROD, subunit of the RZZ complex; Zwilch, subunit of the RZZ complex; ZW10, subunit of the RZZ complex; Spindly, dynein-dynactin adaptor; A polymer; also called polymerized RZZS; RZZS filaments; copies: + + +

[2] = target: T2, mCherry-tagged ROD-Zwilch-ZW10 (RZZ) complex, wild type (UniProt P50748 1-2209; Q9H900 1-591; O43264 1-779); assay: pull-down; GST-BUB1 baits on GSH beads, no phosphorylation step; 50 mM Hepes pH 8.0, 100 mM NaCl, 1 mM TCEP; beads 2 hours at 4°C; SDS-PAGE, Coomassie or in-gel fluorescence; settings: both partners purified
T2 construct: ROD, subunit of the RZZ complex; Zwilch, subunit of the RZZ complex; ZW10, subunit of the RZZ complex; also called mCherry-RZZ; mCherry-RZZ^WT; source: expressed and purified using the biGBac system, as previously described; copies: 2 + 2 + 2
T2 sequence (P50748 whole entry, chain 1 of 3): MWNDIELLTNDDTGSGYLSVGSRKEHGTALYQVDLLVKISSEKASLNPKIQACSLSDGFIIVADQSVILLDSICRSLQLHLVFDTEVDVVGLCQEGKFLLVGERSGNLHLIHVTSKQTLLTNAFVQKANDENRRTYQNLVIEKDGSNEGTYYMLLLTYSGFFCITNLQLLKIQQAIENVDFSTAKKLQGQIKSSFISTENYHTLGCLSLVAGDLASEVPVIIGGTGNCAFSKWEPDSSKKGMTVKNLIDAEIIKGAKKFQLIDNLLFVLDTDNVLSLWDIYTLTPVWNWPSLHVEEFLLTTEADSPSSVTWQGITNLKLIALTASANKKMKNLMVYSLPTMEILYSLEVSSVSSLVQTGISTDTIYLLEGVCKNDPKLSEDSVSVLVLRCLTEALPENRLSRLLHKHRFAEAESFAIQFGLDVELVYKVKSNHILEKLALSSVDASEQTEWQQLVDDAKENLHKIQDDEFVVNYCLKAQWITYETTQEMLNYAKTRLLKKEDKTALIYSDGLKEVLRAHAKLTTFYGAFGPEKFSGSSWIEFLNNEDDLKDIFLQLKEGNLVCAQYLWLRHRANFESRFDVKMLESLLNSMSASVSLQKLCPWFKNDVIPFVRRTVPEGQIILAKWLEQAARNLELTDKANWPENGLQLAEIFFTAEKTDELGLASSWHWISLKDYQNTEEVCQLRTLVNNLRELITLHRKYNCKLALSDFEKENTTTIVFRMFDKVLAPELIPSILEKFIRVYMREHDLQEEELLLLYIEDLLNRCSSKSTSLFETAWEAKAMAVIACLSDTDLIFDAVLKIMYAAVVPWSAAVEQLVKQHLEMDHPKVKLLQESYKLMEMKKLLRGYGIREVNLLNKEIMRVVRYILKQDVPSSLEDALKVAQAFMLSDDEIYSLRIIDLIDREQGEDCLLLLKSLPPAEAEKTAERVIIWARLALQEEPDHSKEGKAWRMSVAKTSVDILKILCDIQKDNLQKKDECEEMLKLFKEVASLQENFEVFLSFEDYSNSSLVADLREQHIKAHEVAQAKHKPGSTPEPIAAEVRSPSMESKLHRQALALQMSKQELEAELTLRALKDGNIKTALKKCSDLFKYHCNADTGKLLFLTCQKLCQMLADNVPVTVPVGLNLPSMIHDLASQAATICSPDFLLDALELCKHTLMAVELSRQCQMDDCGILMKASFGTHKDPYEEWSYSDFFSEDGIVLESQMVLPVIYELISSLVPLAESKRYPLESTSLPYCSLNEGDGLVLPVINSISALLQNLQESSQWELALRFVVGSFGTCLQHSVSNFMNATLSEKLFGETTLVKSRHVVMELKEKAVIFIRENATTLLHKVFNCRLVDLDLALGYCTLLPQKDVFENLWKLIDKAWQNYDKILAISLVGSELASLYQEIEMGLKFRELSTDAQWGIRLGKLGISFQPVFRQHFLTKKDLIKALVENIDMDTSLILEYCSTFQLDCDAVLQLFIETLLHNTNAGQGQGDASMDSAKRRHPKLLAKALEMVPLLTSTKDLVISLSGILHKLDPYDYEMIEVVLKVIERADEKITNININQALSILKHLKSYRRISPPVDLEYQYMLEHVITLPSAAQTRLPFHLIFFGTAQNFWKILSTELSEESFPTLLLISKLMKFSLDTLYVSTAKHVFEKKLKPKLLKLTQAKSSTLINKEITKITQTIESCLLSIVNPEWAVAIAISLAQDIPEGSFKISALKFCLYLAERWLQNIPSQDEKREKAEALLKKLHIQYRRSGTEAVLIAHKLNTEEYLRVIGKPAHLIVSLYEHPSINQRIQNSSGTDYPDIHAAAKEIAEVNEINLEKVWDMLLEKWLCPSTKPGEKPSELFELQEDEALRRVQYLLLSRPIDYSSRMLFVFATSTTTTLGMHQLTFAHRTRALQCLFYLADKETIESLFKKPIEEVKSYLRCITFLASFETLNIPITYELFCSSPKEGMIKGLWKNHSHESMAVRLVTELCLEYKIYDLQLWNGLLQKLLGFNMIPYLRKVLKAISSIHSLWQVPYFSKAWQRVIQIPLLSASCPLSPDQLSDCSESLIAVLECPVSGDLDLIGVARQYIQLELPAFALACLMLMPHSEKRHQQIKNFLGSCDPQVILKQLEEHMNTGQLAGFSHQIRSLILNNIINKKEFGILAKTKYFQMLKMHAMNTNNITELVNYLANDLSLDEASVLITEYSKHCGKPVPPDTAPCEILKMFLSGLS
T2 sequence (Q9H900 whole entry, chain 2 of 3): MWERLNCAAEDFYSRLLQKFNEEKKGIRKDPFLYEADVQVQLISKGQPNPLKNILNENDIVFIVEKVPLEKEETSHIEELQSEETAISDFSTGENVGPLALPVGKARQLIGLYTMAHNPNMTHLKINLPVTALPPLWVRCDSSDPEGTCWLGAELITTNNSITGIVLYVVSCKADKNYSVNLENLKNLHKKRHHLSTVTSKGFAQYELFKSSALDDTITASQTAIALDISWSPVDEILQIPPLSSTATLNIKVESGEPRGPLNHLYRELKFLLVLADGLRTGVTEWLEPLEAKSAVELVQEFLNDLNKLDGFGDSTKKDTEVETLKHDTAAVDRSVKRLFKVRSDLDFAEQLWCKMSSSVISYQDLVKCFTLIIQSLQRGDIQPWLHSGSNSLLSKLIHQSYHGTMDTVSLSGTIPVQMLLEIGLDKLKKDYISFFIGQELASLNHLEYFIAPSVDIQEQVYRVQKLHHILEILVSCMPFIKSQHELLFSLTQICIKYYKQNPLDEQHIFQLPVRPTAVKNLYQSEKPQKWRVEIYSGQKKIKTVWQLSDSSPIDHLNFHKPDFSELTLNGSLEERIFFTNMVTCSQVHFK
T2 sequence (O43264 whole entry, chain 3 of 3): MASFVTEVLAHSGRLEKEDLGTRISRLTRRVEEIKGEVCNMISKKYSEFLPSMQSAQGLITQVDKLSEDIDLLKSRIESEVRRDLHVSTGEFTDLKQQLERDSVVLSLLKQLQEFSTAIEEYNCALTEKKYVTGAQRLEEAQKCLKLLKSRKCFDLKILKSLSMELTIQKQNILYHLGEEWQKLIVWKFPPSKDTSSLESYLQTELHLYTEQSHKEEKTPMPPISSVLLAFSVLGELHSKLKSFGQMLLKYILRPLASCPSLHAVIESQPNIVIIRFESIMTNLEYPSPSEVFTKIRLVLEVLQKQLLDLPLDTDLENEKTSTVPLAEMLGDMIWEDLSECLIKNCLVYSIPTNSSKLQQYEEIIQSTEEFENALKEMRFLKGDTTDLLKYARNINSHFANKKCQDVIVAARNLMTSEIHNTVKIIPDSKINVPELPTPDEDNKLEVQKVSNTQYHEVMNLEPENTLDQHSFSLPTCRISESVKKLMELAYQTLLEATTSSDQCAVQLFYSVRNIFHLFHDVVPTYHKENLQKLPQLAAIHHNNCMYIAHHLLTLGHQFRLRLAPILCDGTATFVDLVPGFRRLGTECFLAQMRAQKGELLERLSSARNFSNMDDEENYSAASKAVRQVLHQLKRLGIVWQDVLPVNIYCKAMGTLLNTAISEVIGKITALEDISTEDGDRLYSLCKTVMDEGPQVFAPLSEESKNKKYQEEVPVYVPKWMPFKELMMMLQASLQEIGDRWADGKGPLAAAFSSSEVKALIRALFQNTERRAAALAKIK

T1 sequence (P50748 whole entry, chain 1 of 4, the tested form may be a part): as the sequence (P50748 whole entry, chain 1 of 3) above
T1 sequence (Q9H900 whole entry, chain 2 of 4, the tested form may be a part): as the sequence (Q9H900 whole entry, chain 2 of 3) above
T1 sequence (O43264 whole entry, chain 3 of 4, the tested form may be a part): as the sequence (O43264 whole entry, chain 3 of 3) above
T1 sequence (Q96EA4 whole entry, chain 4 of 4, the tested form may be a part): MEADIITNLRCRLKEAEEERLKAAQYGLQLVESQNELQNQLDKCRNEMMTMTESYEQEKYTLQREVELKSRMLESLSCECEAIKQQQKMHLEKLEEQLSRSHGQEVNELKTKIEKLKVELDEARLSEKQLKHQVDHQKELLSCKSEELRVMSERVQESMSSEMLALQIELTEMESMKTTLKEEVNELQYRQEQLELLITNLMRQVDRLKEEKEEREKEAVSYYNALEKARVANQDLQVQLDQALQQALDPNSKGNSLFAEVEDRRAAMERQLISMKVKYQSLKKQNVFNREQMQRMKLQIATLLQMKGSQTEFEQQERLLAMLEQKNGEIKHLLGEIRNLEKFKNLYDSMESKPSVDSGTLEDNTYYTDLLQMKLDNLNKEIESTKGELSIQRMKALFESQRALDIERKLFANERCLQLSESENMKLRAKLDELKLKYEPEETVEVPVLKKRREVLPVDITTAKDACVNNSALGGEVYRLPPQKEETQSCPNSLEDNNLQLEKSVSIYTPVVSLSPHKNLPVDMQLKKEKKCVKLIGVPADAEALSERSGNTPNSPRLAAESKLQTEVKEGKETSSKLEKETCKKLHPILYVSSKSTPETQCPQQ

binding result [1]: binds
binding result [2]: binds
B1: GST-BUB1^467-521 (domain or fragment, human, UniProt O43683 467-521, looked up)
chain: ALGFIMNMFQAPTLPDISDDKDEWQSLDQNEDAFEAQFQKNVRSSGAWGVNKIIS
notes: source: E. coli BL21 CodonPlus, purified (GSTrap, SEC); not shown: GST, N-terminal, kept
